According to patent EP2182008A2:

What was measured:
[1] = molecular target: T1, VCAM-1/IgG1 fusion protein (seven extracellular immunoglobulin-like domains) (UniProt P19320); assay: ELISA, Iαd/IgG4 on immobilized CAM/IgG, detection with anti-IgG4 HP6023
T1 sequence (looked up): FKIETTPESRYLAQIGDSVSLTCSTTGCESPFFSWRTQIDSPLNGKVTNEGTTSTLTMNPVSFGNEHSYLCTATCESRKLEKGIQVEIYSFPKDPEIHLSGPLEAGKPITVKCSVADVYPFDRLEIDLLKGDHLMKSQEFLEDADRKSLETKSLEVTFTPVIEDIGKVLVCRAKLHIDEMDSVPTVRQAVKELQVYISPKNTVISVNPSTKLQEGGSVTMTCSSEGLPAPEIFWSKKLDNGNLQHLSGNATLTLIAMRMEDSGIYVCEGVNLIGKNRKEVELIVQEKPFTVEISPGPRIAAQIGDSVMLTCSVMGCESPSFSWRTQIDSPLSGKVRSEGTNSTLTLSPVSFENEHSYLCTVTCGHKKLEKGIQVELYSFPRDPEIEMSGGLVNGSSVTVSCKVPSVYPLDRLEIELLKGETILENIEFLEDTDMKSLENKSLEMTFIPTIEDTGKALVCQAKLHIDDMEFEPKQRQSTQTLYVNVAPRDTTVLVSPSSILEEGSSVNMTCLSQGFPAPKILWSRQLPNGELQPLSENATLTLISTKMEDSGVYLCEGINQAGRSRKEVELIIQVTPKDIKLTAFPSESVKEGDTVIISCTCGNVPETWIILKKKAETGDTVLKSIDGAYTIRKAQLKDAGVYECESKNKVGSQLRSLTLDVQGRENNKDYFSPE

[2] = molecular target: mutant two domain VCAM-1 fused to human immunoglobulin Fc (substitution at residue 40) (human) (UniProt P19320); assay: adhesion of transfected CHO cells to immobilized CAM, crystal violet, A570
[3] = molecular target: recombinant VCAM-1 (commercial preparation, R & D Systems) (UniProt P19320); assay: cell-based or functional assay
[4] = molecular target: LFA-1 leucine zipper fusion protein (UniProt P20701); assay: ELISA, plate format; sentence unclear
[5] = molecular target: immobilized CD11b/CD18 (human) (UniProt P05107); assay: ELISA, plate format; sentence unclear
[6] = molecular target: soluble ICAM-R/IgG1 fusion protein (UniProt P32942); assay: ELISA, soluble integrin in supernatant on immobilized ICAM/Ig
Chain of soluble ICAM-R/IgG1 fusion protein (P32942 30-485 limits assumed): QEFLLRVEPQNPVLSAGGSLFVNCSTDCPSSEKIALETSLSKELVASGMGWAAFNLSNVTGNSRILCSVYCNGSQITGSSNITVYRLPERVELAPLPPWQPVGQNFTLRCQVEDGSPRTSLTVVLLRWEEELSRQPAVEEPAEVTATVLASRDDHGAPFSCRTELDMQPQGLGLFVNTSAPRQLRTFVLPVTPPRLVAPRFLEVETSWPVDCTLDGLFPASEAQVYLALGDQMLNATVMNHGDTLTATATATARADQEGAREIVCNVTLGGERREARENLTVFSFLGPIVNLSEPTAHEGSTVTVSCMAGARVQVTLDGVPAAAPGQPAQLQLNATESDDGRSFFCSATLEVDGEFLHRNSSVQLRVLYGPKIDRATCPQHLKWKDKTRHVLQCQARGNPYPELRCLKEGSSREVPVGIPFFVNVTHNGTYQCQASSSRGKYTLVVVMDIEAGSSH

Chain of human αd I domain/IgG4 fusion protein (P01861 other isoform, or with tags, fused parts or gaps): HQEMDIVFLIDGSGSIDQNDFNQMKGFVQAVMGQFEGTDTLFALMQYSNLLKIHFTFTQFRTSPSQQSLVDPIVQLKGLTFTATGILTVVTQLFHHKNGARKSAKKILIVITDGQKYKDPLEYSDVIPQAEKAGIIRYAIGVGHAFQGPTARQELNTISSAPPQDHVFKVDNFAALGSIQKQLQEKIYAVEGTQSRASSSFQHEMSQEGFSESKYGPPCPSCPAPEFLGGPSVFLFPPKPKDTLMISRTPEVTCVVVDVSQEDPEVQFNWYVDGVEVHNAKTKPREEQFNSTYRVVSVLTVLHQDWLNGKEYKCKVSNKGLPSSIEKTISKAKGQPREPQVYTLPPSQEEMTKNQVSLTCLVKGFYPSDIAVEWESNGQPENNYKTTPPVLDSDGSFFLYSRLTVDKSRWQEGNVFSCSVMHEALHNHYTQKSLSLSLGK

For “human αd I domain/IgG4 fusion protein (from UniProt P01861 99-327) (Fc fusion)”, which fold higher than background [1] is on record?
The fold higher than background was 7 to 10 fold.

With “human αd/CD18 expressed on transfected cells (from UniProt P05107 23-769) (receptor)” as the substance, how does the binding as percent of that with wild-type VCAM-1 [2] read?
Its binding as percent of that with wild-type VCAM-1 is 50%.

Which results are given for “native human αd/CD18 on human cells (from UniProt Q13349 18-1161; P05107 23-769) (receptor)”?
binding rate of IL-5 cultured eosinophils to immobilized VCAM-1 [3]: 28.8%; binding rate of IL-5 cultured eosinophils to immobilized VCAM-1 in the presence of a monoclonal antibody against α4 [3]: 18.1%; binding rate of IL-5 cultured eosinophils to immobilized VCAM-1 in the presence of an anti-CD18 monoclonal antibody [3]: 17.1%

Which fold greater than background binding [4] does the source give for “soluble human αd/CD18 leucine zipper heterodimer (from UniProt P05107 23-700) (receptor)” here?
Its fold greater than background binding is 5 fold.

What about the fold greater than background binding [5] of the same substance?
Its fold greater than background binding is 15 fold.

What about the fold over control well containing no antibody [6] of the same substance?
The fold over control well containing no antibody was 10 fold.
